Results: the supplement of paper PMC9112550, “Optimization of the antimicrobial peptide Bac7 by deep mutational scanning” (BMC Biology, 2022)

test system: Escherichia coli TOP10; test: shrunken log2 fold change of peptide-encoding DNA abundance (4.5 h post-induction vs induction); higher = less antimicrobial activity (less host growth inhibition); settings: time post-induction: 4.5 h; library: site-saturation at positions 5, 18, 19, 20
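Note: peptides expressed intracellularly from a pBAD plasmid library in pooled LB shake-flask culture, induced with 0.3% L-arabinose, DNA abundance read by NGS, three biological replicates, DESeq2 with apeglm shrinkage.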

Sequence	shrunken log2 fold change
RRIRPRPPRLPRPRPRPFNRPRP	-0.436
RRIRHRPPRLPRPRPRPAIKPRP	0.00883
RRIRSRPPRLPRPRPRPLKVPRP	-0.0229
RRIRFRPPRLPRPRPRPPSYPRP	-0.0274
RRIRDRPPRLPRPRPRPHHKPRP	-0.397
RRIRFRPPRLPRPRPRPKRMPRP	0.133
RRIRQRPPRLPRPRPRPFFTPRP	-0.343
RRIRRRPPRLPRPRPRPANFPRP	-0.0416
RRIRQRPPRLPRPRPRPFLVPRP	0.000414
RRIRIRPPRLPRPRPRPLANPRP	-0.145
RRIRHRPPRLPRPRPRPRQGPRP	0.093
RRIRARPPRLPRPRPRPWVYPRP	-0.0996
RRIRERPPRLPRPRPRPCQRPRP	0.0562
RRIRKRPPRLPRPRPRPADIPRP	-0.075
RRIRYRPPRLPRPRPRPYNRPRP	-0.0152
RRIRIRPPRLPRPRPRPVSSPRP	-0.213
RRIRYRPPRLPRPRPRPTRVPRP	0.303
RRIRVRPPRLPRPRPRPGWKPRP	0.169
RRIRMRPPRLPRPRPRPSLVPRP	-0.252
RRIRTRPPRLPRPRPRPKNQPRP	-0.274
RRIRQRPPRLPRPRPRPGNHPRP	-0.0216
RRIRLRPPRLPRPRPRPLVLPRP	-0.355
RRIRTRPPRLPRPRPRPCYLPRP	-0.468
RRIRFRPPRLPRPRPRPCRTPRP	0.048
RRIRPRPPRLPRPRPRPWYTPRP	-0.0297

Sequence	shrunken log2 fold change
RRIRVRPPRLPRPRPRPDWIPRP	-0.218
RRIRTRPPRLPRPRPRPLSKPRP	-0.22
RRIRARPPRLPRPRPRPHMDPRP	0.281
RRIRERPPRLPRPRPRPRHYPRP	-0.462
RRIRTRPPRLPRPRPRPFVIPRP	-0.488
RRIRSRPPRLPRPRPRPDPPPRP	0.746
RRIRRRPPRLPRPRPRPSELPRP	0.0695
RRIRDRPPRLPRPRPRPPPAPRP	0.924
RRIRHRPPRLPRPRPRPKCKPRP	-0.14
RRIRHRPPRLPRPRPRPCWRPRP	0.0476
RRIRSRPPRLPRPRPRPYFSPRP	-0.611
RRIRNRPPRLPRPRPRPQRWPRP	0.176
RRIRYRPPRLPRPRPRPFKAPRP	-0.55
RRIRSRPPRLPRPRPRPGINPRP	0.00688
RRIRTRPPRLPRPRPRPCMRPRP	-0.0225
RRIRCRPPRLPRPRPRPGVDPRP	-0.0475
RRIRQRPPRLPRPRPRPPKKPRP	-0.0474
RRIRGRPPRLPRPRPRPHLQPRP	0.479
RRIRRRPPRLPRPRPRPFIPPRP	-0.506
RRIRNRPPRLPRPRPRPANWPRP	0.182
RRIRVRPPRLPRPRPRPQFYPRP	-0.806
RRIRGRPPRLPRPRPRPGHSPRP	-0.0314
RRIRCRPPRLPRPRPRPFDCPRP	-0.95
RRIRQRPPRLPRPRPRPDPCPRP	-0.243
RRIRQRPPRLPRPRPRPMRTPRP	0.661

Sequence	shrunken log2 fold change
RRIRYRPPRLPRPRPRPRYCPRP	-0.495
RRIRARPPRLPRPRPRPTLQPRP	0.694
RRIRHRPPRLPRPRPRPSRSPRP	-0.202
RRIRTRPPRLPRPRPRPVKEPRP	-0.0988
RRIRDRPPRLPRPRPRPRNQPRP	-0.00575
RRIRDRPPRLPRPRPRPVWLPRP	0.105
RRIRIRPPRLPRPRPRPFTCPRP	0.0493
RRIRPRPPRLPRPRPRPARKPRP	0.705
RRIRTRPPRLPRPRPRPYSHPRP	-0.04
RRIRERPPRLPRPRPRPKFQPRP	-0.268
RRIRCRPPRLPRPRPRPKKLPRP	0.063
RRIRDRPPRLPRPRPRPSTPPRP	-0.238
RRIRPRPPRLPRPRPRPGMGPRP	0.149
RRIRSRPPRLPRPRPRPHARPRP	0.0679
RRIRRRPPRLPRPRPRPFASPRP	-0.0314
RRIRWRPPRLPRPRPRPPNSPRP	0.39
RRIRDRPPRLPRPRPRPAGYPRP	0.528
RRIRQRPPRLPRPRPRPLWCPRP	-0.24
RRIRYRPPRLPRPRPRPCATPRP	0.0757
RRIRQRPPRLPRPRPRPSWKPRP	-0.244
RRIRYRPPRLPRPRPRPMFTPRP	-0.629
RRIRERPPRLPRPRPRPMTQPRP	0.00826
RRIRWRPPRLPRPRPRPAPNPRP	3.12
RRIRKRPPRLPRPRPRPRWMPRP	0.273
RRIRWRPPRLPRPRPRPLKTPRP	0.453
